Reference: publication PMC8938504 (Nature Communications, 2022)

Experiments:
6×His-tagged AVR-Pia = 6×His-tagged AVR-Pia (Magnaporthe oryzae); assay: SPR; […] (single-cycle kinetics, […]; 25 °C; 20 mM Tris pH 8, 150 mM NaCl, 0.5 mM DTT; […]; details: both partners purified
6×His-tagged AVR1-CO39 = 6×His-tagged AVR1-CO39 (Magnaporthe oryzae); assay: as above; details: both partners purified
Sequence of 6×His-tagged AVR1-CO39 (Magnaporthe oryzae) (F7J0N2 982-1116): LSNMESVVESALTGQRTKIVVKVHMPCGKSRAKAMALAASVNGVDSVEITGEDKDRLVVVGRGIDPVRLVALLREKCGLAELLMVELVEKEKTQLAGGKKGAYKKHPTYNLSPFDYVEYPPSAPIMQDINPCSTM

Sequence of 6×His-tagged AVR-Pia (Magnaporthe oryzae) (F7J0N2 982-1116): as above

B1: MBP:RGA5_HMA (wild-type RGA5 HMA domain fused to the maltose-binding protein) (domain or fragment)
chain: SALTGQRTKIVVKVHMPCGKSRAKAMALAASVNGVDSVEITGEDKDRLVVVGRGIDPVRLVALLREKCGLAELLMVELVEKE
Binder B1 has a Kd (6×His-tagged AVR-Pia) of 7.2 µM and a Kd (6×His-tagged AVR1-CO39) of 4.9 µM.
